From patent publication US20150005237A1, “PEPTIDIC INHIBITOR OF SIGNAL TRANSMISSION FROM G-ALPHA-S TO G-ALPHA-I-COUPLED RECEPTOR CASCADES” (UNIVERSITÄT INNSBRUCK, priority 2011, published 2015)

Target: T1, recombinant GST-Gαi3 (Rattus norvegicus, UniProt P08753)
T1 construct: A fusion protein was constructed consisting of full-length Gαi3 and gluthatione S-transferase (GST); made in house; host or cells: Escherichia coli BL21
Assay: SPOT peptide dot blot overlay with recombinant GST-Gαi3
Assay type: binding
Conditions: spotted 25 mers overlaid with GST-Gαi3 10 μg/ml
Description: FIG. 4 Dot blot analysis of conserved amino acids (core element of SEQ ID No. 1, 2, extended sequences SEQ ID No. 4 and 5) in the Reggai sequence. Spotted peptides containing the Reggai sequence (25 mers) of RIIβ (Reg) (SEQ ID No. 7), its mutant functional variant (SEQ ID No. 8) and non-functional peptides not containing the Reggai core element of SEQ ID No. 1 variant (SEQ ID No. 9 to 15) (exchanged amino acids are underlined) were overlaid with recombinant GST-Gαi3. The box indicates the Reggai sequence. Densitometric analysis of the average of two independent dot blot experiments is shown as bar graph. […] SEQ ID No. 9 to 15 in FIG. 4 (2nd to 7th and 9th sequence) are non-inventive comparative peptides.
Overlapping peptides either of the wild type PKA regulatory subunit RIIβ (accession number: NP_002727) or peptides containing substitutions of conserved amino acids in the Reggai sequence were SPOT-synthesized (Synthetic peptide arrays on membrane supports) on distinct coordinates of a cellulose membrane (shown in FIG. 1c; starting from the N-terminus of RegIIβ with amino acid 1-25 [coordinate A1], amino acid 6-30 [coordinate A2], etc.). […] Interactions were detected with rabbit anti-GST and secondary horseradish peroxidase antibodies by a procedure identical to immunoblotting (IB), (see Stefan et al., J. Am. Soc. Nephrol. 18, 199-212 (2007)). […]

T1 sequence (P08753 whole entry, the tested form may be a part): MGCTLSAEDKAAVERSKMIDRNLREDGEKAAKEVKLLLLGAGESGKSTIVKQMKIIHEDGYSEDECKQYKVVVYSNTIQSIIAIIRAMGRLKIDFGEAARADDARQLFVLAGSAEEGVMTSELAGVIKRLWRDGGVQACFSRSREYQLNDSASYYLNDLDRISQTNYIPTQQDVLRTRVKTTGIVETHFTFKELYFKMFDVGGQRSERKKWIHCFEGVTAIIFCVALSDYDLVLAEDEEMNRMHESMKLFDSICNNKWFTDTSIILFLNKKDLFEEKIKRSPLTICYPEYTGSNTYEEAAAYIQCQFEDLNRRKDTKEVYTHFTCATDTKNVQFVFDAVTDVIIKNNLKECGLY

QGASADSFFIVESGE (listed as Homo sapiens) [SEQ ID No. 8]
binding of spotted peptide to recombinant GST-Gαi3 (dot blot): functional
